Sequences and labels used below:
B1: BA-133-04-03 (antibody, V domains shown)
VH: EVQLVESGGGLVQPGGSLRLSCAASGGSVSSYDISWIRQSPSRGLEWLGVIWTDGGTNYNSAFMSRFTISRDDSKNTAYLQMNSLKTEDTAVYYCERVYDGYPWFAYWGQGTLVTVSS
VL: AIQLTQSPSSLSASVGDRVTITCRASQGISNYLNWYLQKPGQSPQLLIYYTSSLFSGVPDRFSGSGSGTDFTLKISRVEAEDVGVYYCQQYIKLPWTFGQGTKVEIK
notes: also called CPE hit BA133-04-03
B2: BAP133-2-02-12 (antibody, V domains shown)
VH: B1 VH
VL: AIQLTQSPSSLSASVGDRVTITCRALQGISNYLNWYQQKPGKAPKLLIYYTSSLHSGVPSRFSGSGSGTEFTLTISSLQPDDFATYYCQQYIKLPWTFGQGTKVEIK
notes: also called BAP133-02-02-12; CPE hit BAP133-2-02-12
B3: BA-133-04-04 (antibody, V domains shown)
VH: B1 VH
VL: B1 VL with F55H, S56E
notes: the killing assays used the ADC form; also called CPE hit BA133-04-04

Changes are numbered by the printed parent chain.

In the first experiment the target is T1, cynoCD46-His (cynomolgus, UniProt A0A2K5WCL8 35-328).
T1 construct: extracellular domain; Immobilised by amine coupling on the SPR chip; not shown: His tag
T1 sequence: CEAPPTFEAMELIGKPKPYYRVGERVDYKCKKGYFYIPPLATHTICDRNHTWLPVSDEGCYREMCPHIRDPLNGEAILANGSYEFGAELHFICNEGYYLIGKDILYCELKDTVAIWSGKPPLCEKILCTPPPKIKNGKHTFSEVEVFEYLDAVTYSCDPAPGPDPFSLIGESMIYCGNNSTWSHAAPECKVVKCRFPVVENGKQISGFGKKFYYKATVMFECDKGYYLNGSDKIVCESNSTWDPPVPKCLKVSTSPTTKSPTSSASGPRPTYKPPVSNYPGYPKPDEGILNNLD
Description: SPR, cynoCD46-His immobilised, antibody as analyte, pH 6.0. On the procedure: (§1) Binding kinetics of anti-CD46 antibodies were measured by surface plasmon resonance on a SPR2/4 instrument (Sierra Sensors, Hamburg, Germany) and flat amine sensor chips. The SPR sensor contained four flow cells (FC1-FC4), each of which can be addressed individually or in groups. huCD46-His was immobilized in FC2, and cynoCD46-His was immobilized in FC4. No protein was immobilized in FC1 and FC3 which were used as control surfaces for FC2 and FC4, respectively.
(§2) All injections were done at a flow rate of 25 μL/min and 25° C. The sensor surface was activated with 1-ethyl-3-(3-dimethylaminopropyl)-carbodiimide (EDC) and N-hydroxysuccinimide (NHS) (200 mM/50 mM) for 480 seconds. Human CD46-His (2 μg/mL in 10 mM NaAc, pH5.0) was injected for 480s and the surface was inactivated by injecting 1M ethanolamine-HCl for 480s. cynoCD46-His was immobilized using the same conditions as described for huCD46-His, except that it was diluted into 10 mM NaAc buffer pH4.5. The control surface was activated and deactivated using the same conditions, but without injecting protein. PBST buffer (PBS pH7.4 with 0.05% TWEEN20™) was used as running buffer for the surface preparation. The running solution was switched to PBST with 30 mM sodium bicarbonate with the pH adjusted as indicated in the figures before the analyte injections. The instrument was equilibrated with the running solution for one hour before the first analyte injection.
(§3) The off-rate was measured for 360 s. The chip surface was regenerated after each cycle of interaction by injecting 6 μL of 10 mM glycine (pH 2.0). Flow cells 1 and 3 without immobilized protein were used as control surfaces for reference subtraction.
As to B1, the affinity, expressed as Kd, was 0.514 nM; the koff was 0.00143 s⁻¹; the kon is 2.79e+06 M⁻¹ s⁻¹.

B2: the Kd amounted to 1.45 nM, the koff came out at 0.00184 s⁻¹ and the kon amounted to 1.27e+06 M⁻¹ s⁻¹.

With B3, the affinity, expressed as Kd, was 1.02 nM; the koff amounted to 0.00146 s⁻¹; the kon stood at 1.42e+06 M⁻¹ s⁻¹.

A further experiment concerns the target T2, huCD46-His (human, UniProt P15529 35-343).
T2 construct: extracellular domain; Immobilised by amine coupling on the SPR chip; It may be the same protein as the ELISA antigen; also called Human CD46-His; human CD46; not shown: His tag
T2 sequence (looked up): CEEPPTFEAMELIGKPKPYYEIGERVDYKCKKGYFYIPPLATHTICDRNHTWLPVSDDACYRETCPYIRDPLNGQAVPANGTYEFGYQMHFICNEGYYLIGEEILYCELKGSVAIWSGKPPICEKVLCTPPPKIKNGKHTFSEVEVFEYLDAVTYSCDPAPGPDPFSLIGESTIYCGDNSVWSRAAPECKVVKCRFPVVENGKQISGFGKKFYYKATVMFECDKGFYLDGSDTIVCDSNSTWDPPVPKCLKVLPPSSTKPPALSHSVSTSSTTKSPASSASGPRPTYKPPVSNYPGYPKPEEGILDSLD
Description: SPR, huCD46-His immobilised, antibody as analyte, pH 7.4. On the procedure:
as §1, §2, §3
In general terms: In SPR one partner is held on a chip, and binding of the other changes the refractive index at the surface.
B1 had a Kd of 4.8 nM, a koff of 0.00249 s⁻¹ and a kon of 519000 M⁻¹ s⁻¹.

The molecule B2 showed a dissociation constant Kd of 8.79 nM, a koff of 0.00225 s⁻¹ and a kon of 256000 M⁻¹ s⁻¹.

B3: the Kd was determined as 4.93 nM, the koff amounted to 0.00241 s⁻¹ and the kon was found to be 490000 M⁻¹ s⁻¹.

Another experiment addresses T3, cyno CD46 expressed on 293 cells (cynomolgus).
T3 construct: whole, on cells; The construct on the cells is not described; also called HEK 293 cells expressing cyno CD46
Description: FACS, 293 cells expressing cyno CD46, pH 6.0. On the procedure: (§4) A similar FACS analysis was also carried out using 293 cells expressing cyno CD46. […] The EC50 values for binding to the 293 cells expressing cyno CD46 by the conditionally active anti-CD46 antibodies are summarized in Table 6.
(A flow cytometer gives signals particle by particle.)
With B1, the EC50 came to 0.0411 µg/mL.

Regarding B2, the EC50 amounted to 0.198 µg/mL. This EC50 lies about 4.8-fold higher than the previous one.

For B3, the 50% effective concentration (EC50) was 0.0947 µg/mL.

A further experiment has as its target T2, huCD46-His. Description: SPR, huCD46-His immobilised, antibody as analyte, pH 6.0. The protocol:
as §1, §2, §3
The molecule B1 showed a Kd of 1.52 nM, a koff of 0.00179 s⁻¹ and a kon of 1.18e+06 M⁻¹ s⁻¹.

The molecule B2 displayed a Kd of 7.51 nM, a koff of 0.00404 s⁻¹ and a kon of 539000 M⁻¹ s⁻¹.

B3 came in with a Kd of 2.51 nM, a koff of 0.00207 s⁻¹ and a kon of 824000 M⁻¹ s⁻¹.

The target of the next experiment is T1, cynoCD46-His. Description: SPR, cynoCD46-His immobilised, antibody as analyte, pH 6.5. The protocol: as §1, §2, §3
As for B1, the Kd is 0.624 nM, the koff turned out to be 0.00142 s⁻¹ and the kon is 2.28e+06 M⁻¹ s⁻¹.

Molecule B2 yielded a Kd of 1.47 nM, a koff of 0.0017 s⁻¹ and a kon of 1.16e+06 M⁻¹ s⁻¹.

B3 displayed a Kd of 1.09 nM, an off-rate constant (koff) of 0.00145 s⁻¹ and a kon of 1.33e+06 M⁻¹ s⁻¹.

The target of the next experiment is T2, huCD46-His. Description: SPR, huCD46-His immobilised, antibody as analyte, pH 6.5. The protocol:
as §1, §2, §3
As to B1, the Kd was 2.07 nM, the koff is 0.00195 s⁻¹ and the kon was 941000 M⁻¹ s⁻¹.

Turning to B2, the Kd was determined as 5.78 nM, the koff amounted to 0.00282 s⁻¹ and the kon was 488000 M⁻¹ s⁻¹.

Molecule B3 displayed a Kd of 1.91 nM, a koff of 0.00176 s⁻¹ and a kon of 922000 M⁻¹ s⁻¹.

The next experiment concerns the target T3, cyno CD46 expressed on 293 cells. Description: FACS, 293 cells expressing cyno CD46, pH 7.4. On the procedure: as §4
B1 displayed an EC50 of 0.33 µg/mL.

In turn, B2 registered an EC50 of 2.92 µg/mL.

B3: a half-maximal effect (EC50) was put at 0.944 µg/mL.

Another experiment shares this target. Description: FACS, 293 cells expressing cyno CD46; EC50 at pH 7.4 over EC50 at pH 6.0. On the procedure: as §4
In the case of B1, the “Ratio (pH 7.4/6.0)” value was found to be 8.

As to B2, the “Ratio (pH 7.4/6.0)” value was 14.8.

As for B3, the “Ratio (pH 7.4/6.0)” value turned out to be 10.

A further experiment concerns the target T4, recombinant cyno CD46 antigen (cynomolgus, UniProt A0A2K5WCL8 35-328).
T4 construct: extracellular domain; Plate-coated antigen of the ELISA; also called cynomolgus CD46 extracellular domain
T4 sequence: T1 sequence
Description: ELISA, coated cyno CD46; EC50 at pH 7.4 over EC50 at pH 6.0. The protocol:
The binding activities of conditionally active anti-CD46 antibodies to cyno CD46 were measured by ELISA and are shown in FIGS. 3-4. The EC50 values for binding to the cyno CD46 at pH 6.0 and pH 7.4 for the conditionally active anti-CD46 antibodies are summarized in Table 2.
[…] Cover with sealing film and place the plate onto a plate shaker set to 50 rpm for 60 minutes at room temperature. [0351] 6) Decant plates and tap out residual liquid on a stack of paper towels. [0352] 7) Serially dilute test articles in 3-fold dilutions starting at 3000 ng/mL in pH 6.0 or pH 7.4 ELISA incubation buffer. [0353] 8) Add 100 μL/well of diluted test articles to the plates [0354] 9) Cover with sealing film and place the plates onto a plate shaker set to 50 rpm for 60 minutes at room temperature. […] 10) Decant plates and tap out residual liquid on a stack of paper towels. [0356] 11) Wash wells three times by dispensing 200 μL of pH 6.0 or pH 7.4 ELISA wash buffer to the wells and completely aspirate the contents. [0357] 12) Dilute the HRP secondary antibody at 1:2500 in pH 6.0 or pH 7.4 ELISA incubation buffer. [0358] 13) Add 100 μL HRP secondary antibody diluted in pH 6.0 or pH 7.4 ELISA incubation buffer to each well [0359] 14) Cover with sealing film and place the plates onto a plate shaker set to 50 rpm for 60 minutes at room temperature. [0360] 15) Decant plates and tap out residual liquid on a stack of paper towels. [0361] 16) Wash wells three times by dispensing 200 μL of pH 6.0 or pH 7.4 ELISA wash buffer to the wells and completely aspirate the contents. [0362] 17) Dispense 50 μL per well of the TMB substrate solution into all wells of the plates. Incubate at room temperature for about 2 minutes 15 seconds or 2 minutes. […] 18) Add 50 μL per well of 1N HCl into all wells of the plates. Read plates at 450 nm using PerkinElmer, EnSpire 2300 Multilabel Reader.
On the technique in general: ELISA stands for enzyme-linked immunosorbent assay.
Take B1: the “ratio (ph 7.4/pH 6.0)” value worked out at 7.14.

As for B2, the “ratio (ph 7.4/pH 6.0)” value amounted to 13.3.

Regarding B3, the “ratio (ph 7.4/pH 6.0)” value worked out at 13.

Another experiment deals with T1, cynoCD46-His. Description: SPR, cynoCD46-His immobilised, antibody as analyte, pH 7.4. On the procedure:
as §1, §2, §3
B1 showed a Kd of 1.26 nM, a koff of 0.00153 s⁻¹ and a kon of 1.21e+06 M⁻¹ s⁻¹.

Consider B2, for which the dissociation constant (Kd) is 3.88 nM, the koff is 0.00192 s⁻¹ and the kon stood at 495000 M⁻¹ s⁻¹.

In the case of B3, binding was characterised by a dissociation constant (Kd) of 2.28 nM, the koff came out at 0.00154 s⁻¹ and the kon amounted to 673000 M⁻¹ s⁻¹.

In general, Kd refers to the constant that tells how readily two partners part at equilibrium. The koff is the rate constant with which the complex falls apart. A higher koff goes with a short-lived complex. The term kon denotes the rate constant with which the complex forms. The low end stands for slower complex formation, the high end for faster complex formation. Usually EC50 stands for the concentration giving half of the maximal effect. Read a high EC50 as a need for much substance.

These data come from patent US20230242662A1 (BIOATLA, published 2023).
